B1: Hammerhead Ribozyme (parent)
chain: ACCGGAUGUGCUUUCCGGUCUGAUGAGUCCGUGAGGACGAAACAG

Variants of: B1
Assay: self-cleavage, relative activity (ratio to wild type); higher = more cleavage; co-transcriptional

| Variant | self-cleavage |
| --- | --- |
| G17A G27U | 0.495 |
| C16A G31A | 1.22 |
| A6G C38G | 0.448 |
| A34U A41G | 0.305 |
| C3U U24C | 0.956 |
| U28A A37U | 0.895 |
| G36A C43G | 0.274 |
| G5A C15A | 1.32 |
| C16A G36U | 0.434 |
| A6U G31U | 0.889 |
| U13C A42G | 0.232 |
| U7G G39U | 0.365 |
| C16A A42U | 0.27 |
| C2A G39C | 0.305 |
| C30A A42G | 0.246 |
| C2U G18A | 1.19 |
| G8C C43A | 0.343 |
| U9C A41G | 0.356 |
| U7G G10C | 1.74 |
| C2G G22U | 0.312 |
| U13C C43U | 0.499 |
| U13C U14C | 0.862 |
| G22C U32A | 0.371 |
| G27U A34C | 0.32 |

| Variant | self-cleavage |
| --- | --- |
| U13A C30A | 1.31 |
| A1C C11G | 0.395 |
| G39A A44C | 0.39 |
| U7G A37C | 1.29 |
| G31U A37U | 0.847 |
| U9C A40G | 0.374 |
| U7A G39U | 0.289 |
| C20U C38A | 0.336 |
| C15U G45U | 0.822 |
| G22C U24A | 0.365 |
| G22A A44G | 0.672 |
| C2A U21A | 0.351 |
| U21C A34G | 0.653 |
| U9C A42C | 0.351 |
| G31A U32C | 1 |
| A34C A37U | 0.444 |
| G4U U24A | 0.442 |
| G10C U13G | 1.24 |
| U9C | 1.02 |
| G8A A44G | 1.41 |
| G27U A41C | 0.328 |
| U9A U28A | 0.803 |
| G10U U19G | 0.435 |
| G18U U32A | 0.646 |

| Variant | self-cleavage |
| --- | --- |
| G17U C38U | 0.758 |
| A34C A44U | 0.512 |
| G18U U28G | 0.581 |
| U12A U28G | 0.92 |
| U12A U14C | 0.946 |
| U19A G31A | 0.41 |
| A1C G22C | 0.352 |
| U9G G45A | 0.426 |
| G8A A26C | 0.577 |
| G17U U19A | 0.361 |
| C11A U32G | 1.01 |
| C11A U32C | 1.06 |
| G17C A26G | 0.353 |
| G36A G45A | 0.444 |
| A6U G27U | 0.395 |
| A26C C43A | 0.349 |
| U7G U14G | 0.831 |
| C15G A41C | 0.398 |
| C2G A37U | 0.293 |
| C11A G33A | 1.22 |
| G27C U32C | 1.01 |
| C2G G45C | 0.331 |
| G10A U13A | 1.72 |
| G4U U13C | 0.634 |

| Variant | self-cleavage |
| --- | --- |
| G17A A34G | 0.56 |
| G8C G33A | 1.11 |
| A26C G45C | 0.398 |
| U14A C16U | 0.798 |
| A1G C2U | 2.07 |
| A1G C2A | 0.881 |
| A1G C2G | 0.735 |
| A23U G33A | 0.524 |
| C3G U7G | 0.625 |
| U24G A26G | 0.304 |
| G27C C29U | 0.576 |
| G8U A41C | 0.324 |
| U9G U32G | 1.07 |
| G18U G39A | 0.339 |
| U9C G45C | 0.648 |
| U9C G45U | 0.591 |
| A6G C16U | 0.762 |
| C29A G45C | 0.388 |
| G8U G33C | 0.57 |
| A34U G35C | 0.631 |
| A34U G35A | 0.638 |
| G5U U32A | 0.795 |
| U13C C20G | 0.293 |
| A6U U28C | 0.638 |

| Variant | self-cleavage |
| --- | --- |
| G17C U21A | 0.306 |
| U12G C43A | 0.362 |
| U9A A26C | 0.532 |
| C20A G35U | 0.345 |
| U21A G45A | 0.329 |
| C38A A42G | 0.263 |
| U13G G25C | 0.315 |
| U13C A44G | 1.49 |
| G8A G22U | 0.384 |
| A23U G45C | 0.42 |
| G31C A34C | 1 |
| U24G C38A | 0.742 |
| C15U A42U | 0.329 |
| A6U G35A | 0.505 |
| A26C U32A | 0.659 |
| C20A A44G | 0.848 |
| C15G G36C | 0.284 |
| G45C | 0.844 |
| G22C A42G | 0.265 |
| G8A G35A | 0.939 |
| A1U G27A | 0.437 |
| U9A U21A | 0.528 |
| A6C A34C | 0.745 |
| U13C C15U | 1.03 |

| Variant | self-cleavage |
| --- | --- |
| C15A G35U | 0.583 |
| G18C G35U | 0.399 |
| C3U C20U | 0.523 |
| C15U C43U | 0.483 |
| G5C A42U | 0.328 |
| A1G A6U | 1.08 |
| G22C G33U | 0.374 |
| U14A C15A | 1.09 |
| U14C C16U | 0.95 |
| U14G C20U | 0.393 |
| G35U A40U | 0.366 |
| G8A C43A | 0.335 |
| U13C A41C | 0.247 |
| G27C G35U | 0.402 |
| A1G U9G | 1.58 |
| A34U G39A | 0.288 |
| G33C A34C | 0.801 |
| A1G G8C | 1.47 |
| G5U G10A | 1.29 |
| U13A C38U | 1.5 |
| C15U A44C | 0.596 |
| C38U | 0.974 |
| U14C G18U | 0.413 |
| G17C A41G | 0.388 |

| Variant | self-cleavage |
| --- | --- |
| G17C A41U | 0.318 |
| C11A C38G | 0.881 |
| U7A C11G | 1.52 |
| U19G G25A | 0.275 |
| U12C C16G | 0.652 |
| C38U A40U | 0.348 |
| C38U A40C | 0.598 |
| A1G G5C | 0.628 |
| C38G C43A | 0.456 |
| G18A G39U | 0.303 |
| G31U U32G | 0.871 |
| A26C A34C | 0.434 |
| U28G C43G | 0.274 |
| C2U C30G | 0.876 |
| A34G A37G | 0.649 |
| U14C G36A | 0.552 |
| U9A G35U | 0.435 |
| G22A G36C | 0.309 |
| C15G U19A | 0.336 |
| C3U A23G | 0.331 |
| U14A G35U | 0.721 |
| C3A G17U | 0.874 |
| U7A G45A | 0.427 |
